This assay has as its target ICAM-1 (COS cell transfectants) (UniProt P05362). The assay is described as follows: FACS of COS transfectants, one transfection out of at least five attempts.

Drawing on patent US20130280735A1, this text covers % binding for one substance.

Chain of UniProt P05362 (P05362 28-532 limits assumed): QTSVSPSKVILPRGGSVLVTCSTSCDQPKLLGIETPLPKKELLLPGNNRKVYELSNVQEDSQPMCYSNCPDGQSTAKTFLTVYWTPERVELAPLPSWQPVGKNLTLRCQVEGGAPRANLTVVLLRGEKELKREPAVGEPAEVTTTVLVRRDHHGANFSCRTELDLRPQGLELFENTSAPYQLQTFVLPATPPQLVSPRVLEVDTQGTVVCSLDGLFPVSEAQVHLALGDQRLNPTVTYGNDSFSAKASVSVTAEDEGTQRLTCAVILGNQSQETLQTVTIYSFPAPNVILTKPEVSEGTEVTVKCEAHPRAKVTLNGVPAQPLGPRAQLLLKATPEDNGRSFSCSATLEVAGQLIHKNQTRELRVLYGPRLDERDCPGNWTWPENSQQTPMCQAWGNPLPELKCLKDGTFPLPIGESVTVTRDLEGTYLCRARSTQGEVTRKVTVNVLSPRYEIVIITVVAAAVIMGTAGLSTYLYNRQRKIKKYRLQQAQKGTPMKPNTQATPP

Take “Fc-CD33Rg (from UniProt P20138 18-259) (Fc fusion)”: the % binding came out at 36%.
